Measured values taken from patent US20110144187, “APTAMER INHIBITION OF THROMBUS FORMATION” (published 2011).

What was measured:
[1] = system: fibrinogen (Homo sapiens), P02671-2+P02675+P02679-2; experiment: filter; conditions: quinoline-8-boronic acid-modified T (B-TTP) replacing T outside the primer region; average Kd of DNA pool after round 13
fibrinogen [2] = molecular target: T1, fibrinogen (Homo sapiens, UniProt P02671-2;P02675;P02679-2 P02671-2:20-629,P02675:31-491,P02679-2:27-437); experiment: SPR; biotin-aptamer on streptavidin chip; conditions: tags: Sigma-Aldrich, from human plasma, about 60% protein, chain copies: 2
Experimental: 0.2 M EDC and 0.05 M NHS were mixed in water. After degassing, 500 μL of this EDC-NHS solution was infused into both channels on the chip over a period of about 10 min (twice). Then a 1 mg/mL streptavidin stock solution was diluted 10-fold with 20 mM sodium acetate buffer at pH 5.2. The streptavidin solution (500 μL) was infused into both the detection and control channels over about 10 min period. […] 1M ethanolamine HCl solution (500 μL) (pH 8.5) was infused in over a period of 3 min to cap un-reacted (and activated) carboxyl sites. Then biotin-labeled aptamer (B-TTP or d-TTP) solution (500 μL, in PBS/T) was infused into the detection channel only over a period of about 10 min (twice). After aptamer immobilization, different fibrinogen concentrations were used in binding studies. In each run, fibrinogen solution was infused in at a flow rate of 0.05 mL/min for 6 min. After each injection, 1M ethanolamine HCl (pH 8.5) solution was infused in as the regeneration solution. All experiments were duplicated.
The KD values were obtained for aptamer 85B (SEQ ID NO.: 14) and its mutational analogs by using a surface plasmon resonance (SPR) instrument. SPR is a method to detect the index of the refraction of surface bound layers, as described by Karlsson et al., (2000) J. Anal. Biochem. 278: 1-13, and Shimomura et al., (2001) Anal. Chim. Acta. 434: 223-230 both of which are incorporated herein by reference in their entireties). This method has been used to determine the kinetic on and off rates for the interactions between biomolecules and binding receptors. In the aptamer-fibrinogen binding studies, streptavidin was immobilized to chips coated with a SAM surface that has terminal carboxyl functional groups. Biotin-labeled DNA was subsequently immobilized on the chip through biotin-streptavidin interactions. Fibrinogen solutions of various concentrations were then used for binding constant determination using kinetic data, as described by Lin et al., (2007). […] Opin. Biotechnol. 8: 498-502; Myszka, D. G. (2000) Methods Enzymol. 323: 325-340; and Myszka & Rich (2000) Pharm. Sci. Technology Today 3: 310-317. Table 6 lists the KD values of 85B and its mutations.

fibrinogen [3] = molecular target: T1, fibrinogen; experiment: filter; equilibrium filtration, same buffer; conditions: tags: Sigma-Aldrich, from human plasma, about 60% protein; chain copies: 2; label: 32P (filtration) or 5'-biotin (SPR)
Experimental: (§1) Dissociation constants in solution were determined by equilibrium filtration (Jenison et al., Science 1994, 263, 1425-1429; Huang & Szostak, RNA 2003, 9: 1456-1463;). Using this technique, the bound and unbound ligand (DNA) partition between the two portions were separated by a membrane. DNA was first amplified into dsDNA using two primers by PCR (25 cycles of 0.5 min at 94° C., 0.5 min at 46° C., and 0.5 min at 72° C., followed by 5 min at 72° C.). The dsDNA product was then split into ssDNA using one primer and α-³²P-dATP by one-round PCR. The ³²P-labeled ssDNA ligand (10 nM) and the protein (1-1000 nM) in the 100 μL of binding buffer were incubated for 15 min at 25° C. prior to loading into the Microcon YM-100 unit (Millipore, Billerica, Mass.). The solution was centrifuged at 13,000 g for 10 sec to saturate the membrane, and the filtrate was transferred back to the unit. […] Aliquots (10 μL) were taken from both the remaining solution and the filtrate, and radioactivity in each aliquot was determined by Beckman LS 6500 liquid scintillation counter. […]
(§2) To determine the extent to which the aptamers 85A (SEQ ID NO.: 13), 85B (SEQ ID NO.: 14), and 85C (SEQ ID NO.: 15) bind specifically to fibrinogen, their dissociation constants (Kd) were measured using the equilibrium filtration method with radiolabeled α-³²P-dATP. […]

[4] = molecular target: T2, periodate-treated fibrinogen (Homo sapiens, UniProt P02671-2;P02675;P02679-2 P02671-2:20-629,P02675:31-491,P02679-2:27-437); experiment: filter; equilibrium filtration; conditions: tags: Sigma-Aldrich fibrinogen, glycans oxidised with sodium periodate, chain copies: 2
Experimental: (§3) Dissociation constants in solution were determined by equilibrium filtration (Jenison et al., Science 1994, 263, 1425-1429; Huang & Szostak, RNA 2003, 9: 1456-1463;). Using this technique, the bound and unbound ligand (DNA) partition between the two portions were separated by a membrane. DNA was first amplified into dsDNA using two primers by PCR (25 cycles of 0.5 min at 94° C., 0.5 min at 46° C., and 0.5 min at 72° C., followed by 5 min at 72° C.). The dsDNA product was then split into ssDNA using one primer and α-³²P-dATP by one-round PCR. The ³²P-labeled ssDNA ligand (10 nM) and the protein (1-1000 nM) in the 100 μL of binding buffer were incubated for 15 min at 25° C. prior to loading into the Microcon YM-100 unit (Millipore, Billerica, Mass.). The solution was centrifuged at 13,000 g for 10 sec to saturate the membrane, and the filtrate was transferred back to the unit. The solution was centrifuged for another 20 sec, and the filtrate (about 10 μL) was collected. Aliquots (10 μL) were taken from both the remaining solution and the filtrate, and radioactivity in each aliquot was determined by Beckman LS 6500 liquid scintillation counter. All binding assays were duplicated. The equilibrium dissociation constants (Kd) of the ligand-protein interaction were obtained by fitting the dependence of bound fractions of specific binding on the concentration of the […] to the equation Y=B max X/(Kd+X), using the SigmaPlot program.
(§4) To determine the extent to which the aptamers 85A (SEQ ID NO.: 13), 85B (SEQ ID NO.: 14), and 85C (SEQ ID NO.: 15) bind specifically to fibrinogen, their dissociation constants (Kd) were measured using the equilibrium filtration method with radiolabeled α-³²P-dATP. The target substrate to which the aptamer was binding was fibrinogen (FIG. 12A), deglycosylated fibrinogen (FIG. 12B) and periodated fibrinogen (FIG. 12C).

[5] = molecular target: T3, deglycosylated fibrinogen (TFMS-treated) (Homo sapiens, UniProt P02671-2;P02675;P02679-2 P02671-2:20-629,P02675:31-491,P02679-2:27-437); experiment: filter; equilibrium filtration; conditions: tags: Sigma-Aldrich fibrinogen, chemically deglycosylated with trifluoromethanesulfonic acid, chain copies: 2
Experimental: as §3, §4

fibrinogen [6] = molecular target: T1, fibrinogen; experiment: filter; equilibrium filtration; Table 1 prints a different (93, possibly truncated) value; conditions: tags: Sigma-Aldrich, from human plasma, about 60% protein; chain copies: 2; label: 32P (alpha-32P-dATP)
Experimental: as §1, §2

[7] = molecular target: T2, periodate-treated fibrinogen; experiment: filter; equilibrium filtration; value as printed; conditions: tags: Sigma-Aldrich fibrinogen, glycans oxidised with sodium periodate; chain copies: 2; label: 32P (alpha-32P-dATP)
Experimental: as §1, §2

[8] = molecular target: T3, deglycosylated fibrinogen (TFMS-treated); experiment: filter; equilibrium filtration; value as printed; conditions: tags: Sigma-Aldrich fibrinogen, chemically deglycosylated with trifluoromethanesulfonic acid; chain copies: 2; label: 32P (alpha-32P-dATP)
Experimental: as §1, §2

fibrinogen [9] = molecular target: T1, fibrinogen; experiment: filter; equilibrium filtration; Tables 3 and 4 give 102 ± 40; conditions: tags: Sigma-Aldrich, from human plasma, about 60% protein; chain copies: 2; label: 32P (alpha-32P-dATP)
Experimental: as §1, §2

fibrinogen [10] = molecular target: T1, fibrinogen; experiment: filter; equilibrium filtration; conditions: tags: Sigma-Aldrich, from human plasma, about 60% protein; chain copies: 2; label: 32P (alpha-32P-dATP)
Experimental: as §3, §4

fibrinogen [11] = molecular target: T1, fibrinogen; experiment: filter; equilibrium filtration; peroxide-treated aptamer; conditions: tags: Sigma-Aldrich, from human plasma, about 60% protein; chain copies: 2; label: 32P (alpha-32P-dATP)
[12] = label: 32P (filtration) or 5'-biotin (SPR)

T1 sequence (P02671 20-629, chain 1 of 3): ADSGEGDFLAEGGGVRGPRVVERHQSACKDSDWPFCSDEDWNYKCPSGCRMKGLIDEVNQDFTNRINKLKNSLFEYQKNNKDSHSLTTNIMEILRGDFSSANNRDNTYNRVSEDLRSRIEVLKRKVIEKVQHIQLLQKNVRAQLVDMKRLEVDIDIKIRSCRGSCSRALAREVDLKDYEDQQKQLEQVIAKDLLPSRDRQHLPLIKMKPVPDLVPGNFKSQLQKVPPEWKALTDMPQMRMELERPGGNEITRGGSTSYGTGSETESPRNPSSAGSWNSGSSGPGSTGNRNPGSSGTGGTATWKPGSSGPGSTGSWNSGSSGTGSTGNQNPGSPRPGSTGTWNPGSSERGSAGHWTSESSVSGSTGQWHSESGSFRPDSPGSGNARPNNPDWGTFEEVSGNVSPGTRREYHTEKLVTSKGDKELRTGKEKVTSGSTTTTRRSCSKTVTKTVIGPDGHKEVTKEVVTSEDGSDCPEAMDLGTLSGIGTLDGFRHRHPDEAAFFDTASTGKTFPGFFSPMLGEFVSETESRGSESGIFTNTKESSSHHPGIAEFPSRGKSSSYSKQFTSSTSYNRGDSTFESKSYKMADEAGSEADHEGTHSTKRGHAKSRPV
T1 sequence (P02675 31-491, chain 2 of 3): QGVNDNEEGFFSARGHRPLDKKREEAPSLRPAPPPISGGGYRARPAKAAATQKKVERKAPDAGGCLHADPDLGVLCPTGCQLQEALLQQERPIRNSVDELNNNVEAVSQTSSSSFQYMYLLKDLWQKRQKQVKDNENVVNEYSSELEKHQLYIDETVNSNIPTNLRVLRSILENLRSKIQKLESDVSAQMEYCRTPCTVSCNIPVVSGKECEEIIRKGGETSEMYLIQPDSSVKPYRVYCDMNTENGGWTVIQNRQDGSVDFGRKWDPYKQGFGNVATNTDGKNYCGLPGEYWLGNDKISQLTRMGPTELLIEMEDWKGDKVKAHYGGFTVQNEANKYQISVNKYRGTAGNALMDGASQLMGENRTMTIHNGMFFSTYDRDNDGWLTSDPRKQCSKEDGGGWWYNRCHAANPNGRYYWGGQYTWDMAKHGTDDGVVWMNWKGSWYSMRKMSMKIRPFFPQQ
T1 sequence (P02679 other isoform, or with tags, fused parts or gaps, chain 3 of 3): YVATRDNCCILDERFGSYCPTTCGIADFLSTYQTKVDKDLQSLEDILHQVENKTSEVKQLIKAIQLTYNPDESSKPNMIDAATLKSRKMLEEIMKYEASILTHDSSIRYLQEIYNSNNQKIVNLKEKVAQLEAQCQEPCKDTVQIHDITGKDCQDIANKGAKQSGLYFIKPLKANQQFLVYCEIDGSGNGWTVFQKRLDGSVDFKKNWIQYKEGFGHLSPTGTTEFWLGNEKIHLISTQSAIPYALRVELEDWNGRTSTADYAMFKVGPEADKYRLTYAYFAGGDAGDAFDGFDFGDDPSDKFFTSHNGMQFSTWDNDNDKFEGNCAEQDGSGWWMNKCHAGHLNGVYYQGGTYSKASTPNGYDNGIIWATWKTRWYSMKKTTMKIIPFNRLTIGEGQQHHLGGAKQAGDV
T3 sequence (P02671 20-629, chain 1 of 3): as the sequence (P02671 20-629, chain 1 of 3) above
T3 sequence (P02675 31-491, chain 2 of 3): as the sequence (P02675 31-491, chain 2 of 3) above
T3 sequence (P02679 other isoform, or with tags, fused parts or gaps, chain 3 of 3): as the sequence (P02679 other isoform, or with tags, fused parts or gaps, chain 3 of 3) above
T2 sequence (P02671 20-629, chain 1 of 3): as the sequence (P02671 20-629, chain 1 of 3) above
T2 sequence (P02675 31-491, chain 2 of 3): as the sequence (P02675 31-491, chain 2 of 3) above
T2 sequence (P02679 other isoform, or with tags, fused parts or gaps, chain 3 of 3): as the sequence (P02679 other isoform, or with tags, fused parts or gaps, chain 3 of 3) above
fibrinogen (Homo sapiens), P02671-2+P02675+P02679-2, sequence (P02671 20-629, chain 1 of 3): as the sequence (P02671 20-629, chain 1 of 3) above
fibrinogen (Homo sapiens), P02671-2+P02675+P02679-2, sequence (P02675 31-491, chain 2 of 3): as the sequence (P02675 31-491, chain 2 of 3) above
fibrinogen (Homo sapiens), P02671-2+P02675+P02679-2, sequence (P02679 other isoform, or with tags, fused parts or gaps, chain 3 of 3): as the sequence (P02679 other isoform, or with tags, fused parts or gaps, chain 3 of 3) above

With “CCTTCGTTGTCTGCCTTCGTNNNNNNNNNNNNNNNNNNNNNNNNNNNNNNNNNNNNNNNNNNNNNNNNNNACCCTTCAGAATTCGCACCA [round 13 SELEX pool B-TTP]” the Kd [1] was 5000 nM.

B1: 85B-2 B-TTP (ssDNA)
DNA: CCTTCGTTGTCTGCCTTCGTAGGACCGCAGACATCGACGCAGGGAAAATCCGCAAGTCCAGCCAAATGCCACCCTTCAGAATTCGCACCA
modifications: quinoline-8-boronic acid-modified T (B-TTP) replacing T outside the primer region
Work on B1 yielded a Kd (fibrinogen [2]; label: 5'-biotin) of 63.7 nM.

B2: 85B-5 B-TTP (ssDNA)
DNA: CCTTCGTTGTCTGCCTTCGTAGGACCGCAGACATCGACGCAGGGAAATTCCGCAAGTCCAGCCAAAAGCCACCCTTCAGAATTCGCACCA
modifications: quinoline-8-boronic acid-modified T (B-TTP) replacing T outside the primer region
In the case of B2, the Kd (fibrinogen [2]; label: 5'-biotin) is reported as 329 nM.

B3: 85B-4 dTTP (ssDNA)
DNA: CCTTCGTTGTCTGCCTTCGTAGGACCGCAGACATCGACGCAGGGAAATTCCGCAAGACCAGCCAAAAGCCACCCTTCAGAATTCGCACCA
modifications: none (natural T)
With B3 the Kd (fibrinogen [2]; label: 5'-biotin) was 238 nM.

B4: 85B-4 B-TTP (ssDNA)
DNA: CCTTCGTTGTCTGCCTTCGTAGGACCGCAGACATCGACGCAGGGAAATTCCGCAAGACCAGCCAAAAGCCACCCTTCAGAATTCGCACCA
modifications: quinoline-8-boronic acid-modified T (B-TTP) replacing T outside the primer region
With B4 the Kd (fibrinogen [2]; label: 5'-biotin) was 11.2 nM.

B5: 85B-1 dTTP (ssDNA)
DNA: CCTTCGTTGTCTGCCTTCGTAGGACCGCAGACAACGACGCAGGGAAATTCCGCAAGTCCAGCCAAATGCCACCCTTCAGAATTCGCACCA
modifications: none (natural T)
B5 gave a Kd (fibrinogen [2]; label: 5'-biotin) of 507 nM.

B6: 85B-1 B-TTP (ssDNA)
DNA: CCTTCGTTGTCTGCCTTCGTAGGACCGCAGACAACGACGCAGGGAAATTCCGCAAGTCCAGCCAAATGCCACCCTTCAGAATTCGCACCA
modifications: quinoline-8-boronic acid-modified T (B-TTP) replacing T outside the primer region
B6 gave a Kd (fibrinogen [2]; label: 5'-biotin) of 205 nM.

B7: 85B-3 dTTP (ssDNA)
DNA: CCTTCGTTGTCTGCCTTCGTAGGACCGCAGACAACGACGCAGGGAAATACCGCAAGTCCAGCCAAATGCCACCCTTCAGAATTCGCACCA
modifications: none (natural T)
In the case of B7, the Kd (fibrinogen [2]; label: 5'-biotin) is reported as 233 nM.

B8: 85B-3 B-TTP (ssDNA)
DNA: CCTTCGTTGTCTGCCTTCGTAGGACCGCAGACAACGACGCAGGGAAATACCGCAAGTCCAGCCAAATGCCACCCTTCAGAATTCGCACCA
modifications: quinoline-8-boronic acid-modified T (B-TTP) replacing T outside the primer region
Work on B8 yielded a Kd (fibrinogen [2]; label: 5'-biotin) of 17.6 nM.

B9: 85B-5 dTTP (ssDNA)
DNA: CCTTCGTTGTCTGCCTTCGTAGGACCGCAGACATCGACGCAGGGAAATTCCGCAAGTCCAGCCAAAAGCCACCCTTCAGAATTCGCACCA
modifications: none (natural T)
Molecule B9 has a Kd (fibrinogen [2]; label: 5'-biotin) of 1080 nM.

B10: 85B TTP (ssDNA)
DNA: CCTTCGTTGTCTGCCTTCGTAGGACCGCAGACATCGACGCAGGGAAATTCCGCAAGTCCAGCCAAATGCCACCCTTCAGAATTCGCACCA
modifications: none (natural T)
With B10 the Kd (fibrinogen [3]) was 63.8 nM, the Kd (fibrinogen [2]; [12]) was 127 nM and the Kd [4, 12] was 130 nM. It also gave a Kd [5, 12] of 140 nM.

B11: 85B-2 dTTP (ssDNA)
DNA: CCTTCGTTGTCTGCCTTCGTAGGACCGCAGACATCGACGCAGGGAAAATCCGCAAGTCCAGCCAAATGCCACCCTTCAGAATTCGCACCA
modifications: none (natural T)
Molecule B11 has a Kd (fibrinogen [2]; label: 5'-biotin) of 127 nM.

B12: 85C TTP (ssDNA)
DNA: CCTTCGTTGTCTGCCTTCGTAGTCGACTCTGACGCATGGACGTATCCTGTGCGTATGCATTATGAAGCACACCCTTCAGAATTCGCACCA
modifications: none (natural T)
B12 was tested, and the Kd (fibrinogen [6]) was 122 nM, the Kd ([4]; label: 32P (alpha-32P-dATP)) was 321 nM and the Kd ([5]; label: 32P (alpha-32P-dATP)) was 256 nM.

B13: 85A TTP (ssDNA)
DNA: CCTTCGTTGTCTGCCTTCGTAGCGGATCGAATTACGCGTTAACGGCAACCGATAACGGGACCGATTGCACACCCTTCAGAATTCGCACCA
modifications: none (natural T)
B13 was tested, and the Kd [7] was 67.4 nM, the Kd [8] was 60.2 nM and the Kd (fibrinogen [9]) was 102 nM.

B14: 85A M-TTP (ssDNA)
DNA: CCTTCGTTGTCTGCCTTCGTAGCGGATCGAATTACGCGTTAACGGCAACCGATAACGGGACCGATTGCACACCCTTCAGAATTCGCACCA
modifications: 5-alkynyl-amide T without boronic acid (M-TTP) replacing T outside the primer region
B14 showed a Kd (fibrinogen [10]) of 138 nM.

B15: 85A B-TTP, H2O2-treated (ssDNA)
DNA: CCTTCGTTGTCTGCCTTCGTAGCGGATCGAATTACGCGTTAACGGCAACCGATAACGGGACCGATTGCACACCCTTCAGAATTCGCACCA
modifications: B-TTP-derived T with boronic acid removed by peroxide oxidation
B15 gave a Kd (fibrinogen [11]) of 173 nM.
